Test results as given in article PMC2580753.
Like-named read-outs stand apart in the source and are kept apart here. Values belong to the substance of their own block, whether it stands above or below them.

Legend:
Experiment in all cases: SPR
[1] = target: mIgA1κ (monomeric myeloma IgA1, kappa light chain) (UniProt P01876); conditions: pH 7.4, 25 °C, 150 mM NaCl, TBS-P: 20 mM Tris
[2] = target: mIgA1κ (monomeric myeloma IgA1, kappa light chain) (UniProt P01876); conditions: pH 7.4, 25 °C, 150 mM NaCl, TBS-P: 20 mM Tris; remark: listed apart in the source
[3] = target: Fcα (IgA1-Fc core fragment, CH2-CH3) (UniProt P01876); conditions: pH 7.4, 25 °C, 150 mM NaCl, TBS-P: 20 mM Tris
Chain of Fcα (IgA1-Fc core fragment, CH2-CH3) (P01876 whole entry, the tested form may be a part): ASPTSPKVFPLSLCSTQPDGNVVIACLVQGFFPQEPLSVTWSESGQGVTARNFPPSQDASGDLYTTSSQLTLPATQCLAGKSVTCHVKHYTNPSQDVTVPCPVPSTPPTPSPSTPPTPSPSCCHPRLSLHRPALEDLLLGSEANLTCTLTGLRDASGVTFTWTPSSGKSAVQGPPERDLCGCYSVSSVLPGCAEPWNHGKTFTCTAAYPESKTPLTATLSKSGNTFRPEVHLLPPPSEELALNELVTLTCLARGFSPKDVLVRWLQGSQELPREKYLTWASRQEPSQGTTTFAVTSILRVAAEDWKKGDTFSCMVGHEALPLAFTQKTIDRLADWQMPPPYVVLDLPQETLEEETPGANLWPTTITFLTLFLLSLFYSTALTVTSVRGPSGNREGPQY

[4] = target: Monomeric myeloma patient-derived IgA1κ (mIgA1κ) (human)
[5] = target: Deglycosylated mIgA1κ (N-glycans removed enzymatically) (human)
[6] = target: Monomeric myeloma patient-derived IgA1κ (mIgA1κ) (human); remark: listed apart in the source
[7] = target: Monomeric IgA1 (Mce), a naturally undergalactosylated myeloma IgA1 protein (human)
[8] = target: Monomeric myeloma patient-derived IgA1λ (mIgA1λ) (human)
[9] = target: Monomeric myeloma patient-derived IgA1κ (mIgA1κ) (human); remark: listed apart in the source
[10] = target: Deglycosylated mIgA1κ (N-glycans removed enzymatically) (human); remark: listed apart in the source

Chain of Soluble recombinant FcαRI ectodomain (P24071 22-227): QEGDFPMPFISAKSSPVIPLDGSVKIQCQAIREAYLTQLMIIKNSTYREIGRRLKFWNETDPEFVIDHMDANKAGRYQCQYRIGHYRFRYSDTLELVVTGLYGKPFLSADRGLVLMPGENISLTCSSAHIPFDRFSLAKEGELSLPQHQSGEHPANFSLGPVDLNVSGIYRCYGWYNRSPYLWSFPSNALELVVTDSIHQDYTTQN
Chain of mIgA1κ (monomeric myeloma IgA1, kappa light chain) (P01876 whole entry, the tested form may be a part): as the sequence (P01876 whole entry, the tested form may be a part) above

k1off [1]: 0.0267 s⁻¹ | k1on [1]: 317000 M/s | k2off [1]: 0.096 s⁻¹ | k2on [1]: 315000 M/s | k1off [2]: 0.0266 s⁻¹ | k1on [2]: 355000 M/s | k2off [2]: 0.074 s⁻¹ | k2on [2]: 304000 M/s | k1off [3]: 0.0278 s⁻¹ | k1on [3]: 461000 M/s | k2off [3]: 0.054 s⁻¹ | k2on [3]: 447000 M/s
Substance: FcαRI (CD89) soluble ectodomain

k1off (first binding event) [4]: 0.0267 s⁻¹ | k1on (first binding event) [4]: 317000 M/s | k2on (second binding event) [4]: 315000 M/s | KD1 (first binding event) [5]: 78.4 nM | KD2 (second binding event) [5]: 320 nM | k1off (first binding event) [5]: 0.0258 s⁻¹ | k1on (first binding event) [5]: 329000 M/s | k2on (second binding event) [5]: 187000 M/s | KD1 (first binding event) [6]: 74.9 nM | KD1 (two-site equilibrium model) [6]: 40.2 nM | KD1 at pH 5.5 (first binding event) [6]: 837 nM | KD2 (second binding event) [6]: 244 nM | KD2 (two-site equilibrium model) [6]: 452 nM | KD2 at pH 5.5 (second binding event) [6]: 2.53 μM | k1off (first binding event) [6]: 0.0266 s⁻¹ | k1on (first binding event) [6]: 355000 M/s | k2on (second binding event) [6]: 304000 M/s | KD1 (first binding event) [7]: 72.3 nM | KD1 (two-site equilibrium model) [7]: 40.8 nM | KD2 (second binding event) [7]: 222 nM | KD2 (two-site equilibrium model) [7]: 403 nM | KD1 (two-site equilibrium model) [8]: 47.6 nM | KD2 (second binding event) [8]: 195 nM | KD2 (two-site equilibrium model) [8]: 371 nM | k1off (first binding event) [8]: 0.0254 s⁻¹ | k1on (first binding event) [8]: 312000 M/s | k2off (second binding event) [8]: 0.102 s⁻¹ | k2on (second binding event) [8]: 525000 M/s | KD1 (two-site equilibrium model) [9]: 45 nM | KD2 (two-site equilibrium model) [9]: 571 nM | KD1 (two-site equilibrium model) [10]: 42.6 nM | KD2 (two-site equilibrium model) [10]: 582 nM
Substance: Soluble recombinant FcαRI ectodomain (from UniProt P24071 22-227) (receptor)
